These results are taken from patent US20220033462A1 (ALLOGENE THERAPEUTICS, published 2022).

The target of test [1] is T1, biotinylated recombinant human PSMA-human IgG1 Fc fusion protein (human, UniProt Q04609 44-750, biotinylated (sites not given)).
T1 construct: Staining reagent; not shown: human IgG1 Fc
Put plainly: flow cytometry, reporter Jurkat cells co-expressing P-CAR2 (FIGS. 6-9). (In general: Flow cytometry measures light scatter and fluorescence of single cells or particles in a stream.)

Test [2] concerns the target T2, recombinant human CD19-mouse IgG Fc fusion protein (human; mouse, UniProt P15391 20-291, limits assumed).
T2 construct: Staining reagent; not shown: mouse IgG Fc
T2 sequence (looked up): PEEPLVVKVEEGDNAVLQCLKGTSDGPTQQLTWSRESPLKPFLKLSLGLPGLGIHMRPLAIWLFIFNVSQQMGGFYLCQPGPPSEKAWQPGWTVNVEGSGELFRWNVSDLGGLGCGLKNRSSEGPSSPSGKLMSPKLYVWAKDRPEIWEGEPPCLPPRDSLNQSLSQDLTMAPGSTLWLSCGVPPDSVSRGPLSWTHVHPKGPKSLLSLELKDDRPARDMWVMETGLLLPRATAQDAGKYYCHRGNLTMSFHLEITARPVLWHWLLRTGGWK
Put plainly: flow cytometry, NFAT-/NFkB-luciferase reporter Jurkat cells expressing P-CAR2 (FIGS. 6-9).

T1 sequence (Q04609 44-750 limits assumed): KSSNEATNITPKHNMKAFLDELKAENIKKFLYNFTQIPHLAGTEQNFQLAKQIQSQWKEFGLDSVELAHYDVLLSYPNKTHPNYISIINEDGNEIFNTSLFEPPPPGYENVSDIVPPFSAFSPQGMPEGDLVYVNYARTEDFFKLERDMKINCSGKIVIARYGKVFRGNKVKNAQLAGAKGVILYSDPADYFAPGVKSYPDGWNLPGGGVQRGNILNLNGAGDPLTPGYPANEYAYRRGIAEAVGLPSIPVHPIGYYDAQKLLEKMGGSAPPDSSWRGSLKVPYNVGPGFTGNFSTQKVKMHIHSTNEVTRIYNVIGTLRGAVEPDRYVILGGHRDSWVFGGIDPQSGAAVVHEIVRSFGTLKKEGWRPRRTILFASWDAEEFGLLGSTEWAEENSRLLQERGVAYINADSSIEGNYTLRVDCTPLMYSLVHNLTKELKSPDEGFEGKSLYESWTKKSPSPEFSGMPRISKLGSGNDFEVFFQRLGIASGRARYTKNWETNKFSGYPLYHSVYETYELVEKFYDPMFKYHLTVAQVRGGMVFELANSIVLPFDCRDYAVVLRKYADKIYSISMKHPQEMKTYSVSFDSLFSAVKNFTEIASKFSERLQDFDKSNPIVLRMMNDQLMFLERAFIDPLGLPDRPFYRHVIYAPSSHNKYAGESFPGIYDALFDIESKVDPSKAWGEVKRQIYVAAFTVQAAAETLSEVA

B1: N-CAR PD1-LAG3 (SEQ ID No 1999 with intracellular domain SEQ ID No 2004) (other)
chain: EVQLQQSGPELVKPGTSVRISCKTSGYTFTEYTIHWVKQSHGKSLEWIGNINPNNGGTTYNQKFEDKATLTVDKSSSTAYMELRSLTSEDSAVYYCAAGWNFDYWGQGTTVTVSSGGGGSGGGGSGGGGSDIVMTQSHKFMSTSVGDRVSIICKASQDVGTAVDWYQQKPGQSPKLLIYWASTRHTGVPDRFTGSGSGTDFTLTITNVQSEDLADYFCQQYNSYPLTFGAGTMLDLKRAAATERRAEVPTAHPSPSPRPAGQFQTLVVGVVGGLLGSLVLLVWVLAVICSRAARGTIGARRTGQPLKEDPSAVPVFSVDYGELDFQWREKTPEPPVPCVPEQTEYATIVFPSGMGTSSPARRGSADGPRSAQPLRPEDGHCSWPLHLWRRQWRPRRFSALEQGIHPPQAQSKIEELEQEPEPEPEPEPEPEPEPEPEQL
For B1, the binding result in test [1] is on record as “binds”.

B2: P-CAR2 (SEQ ID No 2020) (other)
chain: EVKLQQSGAELVRPGSSVKISCKASGYAFSSYWMNWVKQRPGQGLEWIGQIYPGDGDTNYNGKFKGQATLTADKSSSTAYMQLSGLTSEDSAVYFCARKTISSVVDFYFDYWGQGTTVTVSSGGGGSGGGGSGGGGSDIELTQSPKFMSTSVGDRVSVTCKASQNVGTNVAWYQQKPGQSPKPLIYSATYRNSGVPDRFTGSGSGTDFTLTITNVQSKDLADYFCQQYNRYPYTSGGGTKLEIKRAAAIEVMYPPPYLDNEKSNGTIIHVKGKHLCPSPLFPGPSKPFWVLVVVGGVLACYSLLVTVAFIIFWVRSKRSRLLHSDYMNMTPRRPGPTRKHYQPYAPPRDFAAYRSRVKFSRSADAPAYQQGQNQLYNELNLGRREEYDVLDKRRGRDPEMGGKPRRKNPQEGLYNELQKDKMAEAYSEIGMKGERRRGKGHDGLYQGLSTATKDTYDALHMQALPPR
notes: Chimeric antigen receptor on the surface of transduced reporter Jurkat cells; also called positive signaling CAR with scFv from anti-CD19 antibody SJ25C1
For the molecule B2, the binding result in test [2] was “binds”.

B3: N-CAR CD244 (SEQ ID No 1999 with intracellular domain SEQ ID No 2002) (other)
chain: EVQLQQSGPELVKPGTSVRISCKTSGYTFTEYTIHWVKQSHGKSLEWIGNINPNNGGTTYNQKFEDKATLTVDKSSSTAYMELRSLTSEDSAVYYCAAGWNFDYWGQGTTVTVSSGGGGSGGGGSGGGGSDIVMTQSHKFMSTSVGDRVSIICKASQDVGTAVDWYQQKPGQSPKLLIYWASTRHTGVPDRFTGSGSGTDFTLTITNVQSEDLADYFCQQYNSYPLTFGAGTMLDLKRAAATERRAEVPTAHPSPSPRPAGQFQTLVVGVVGGLLGSLVLLVWVLAVIWRRKRKEKQSETSPKEFLTIYEDVKDLKTRRNHEQEQTFPGGGSTIYSMIQSQSSAPTSQEPAYTLYSLIQPSRKSGSRKRNHSPSFNSTIYEVIGKSQPKAQNPARLSRKELENFDVYS
As for B3, the binding result in test [1] was “binds”.

B4: N-CAR PD1-CTLA4 (SEQ ID No 1999 with intracellular domain SEQ ID No 2003) (other)
chain: EVQLQQSGPELVKPGTSVRISCKTSGYTFTEYTIHWVKQSHGKSLEWIGNINPNNGGTTYNQKFEDKATLTVDKSSSTAYMELRSLTSEDSAVYYCAAGWNFDYWGQGTTVTVSSGGGGSGGGGSGGGGSDIVMTQSHKFMSTSVGDRVSIICKASQDVGTAVDWYQQKPGQSPKLLIYWASTRHTGVPDRFTGSGSGTDFTLTITNVQSEDLADYFCQQYNSYPLTFGAGTMLDLKRAAATERRAEVPTAHPSPSPRPAGQFQTLVVGVVGGLLGSLVLLVWVLAVICSRAARGTIGARRTGQPLKEDPSAVPVFSVDYGELDFQWREKTPEPPVPCVPEQTEYATIVFPSGMGTSSPARRGSADGPRSAQPLRPEDGHCSWPLAVSLSKMLKKRSPLTTGVYVKMPPTEPECEKQFQPYFIPIN
For the molecule B4, the binding result in test [1] is listed as “binds”.

B5: N-CAR BTLA (SEQ ID No 1999 with intracellular domain SEQ ID No 2001) (other)
chain: EVQLQQSGPELVKPGTSVRISCKTSGYTFTEYTIHWVKQSHGKSLEWIGNINPNNGGTTYNQKFEDKATLTVDKSSSTAYMELRSLTSEDSAVYYCAAGWNFDYWGQGTTVTVSSGGGGSGGGGSGGGGSDIVMTQSHKFMSTSVGDRVSIICKASQDVGTAVDWYQQKPGQSPKLLIYWASTRHTGVPDRFTGSGSGTDFTLTITNVQSEDLADYFCQQYNSYPLTFGAGTMLDLKRAAATERRAEVPTAHPSPSPRPAGQFQTLVVGVVGGLLGSLVLLVWVLAVIRRHQGKQNELSDTAGREINLVDAHLKSEQTEASTRQNSQVLLSETGIYDNDPDLCFRMQEGSEVYSNPCLEENKPGIVYASLNHSVIGPNSRLARNVKEAPTEYASICVRS
Turning to B5, the binding result in test [1] was “binds”.
